In the supplement of paper PMC10724198:
± gives the standard deviation of the averaged measurements.

What was measured:
Assay in all cases: protein stability index of tFT-peptide fusion (C-terminal peptide) (PSI (0-1 scale)); higher = more stable (slower turnover)
Saccharomyces cerevisiae [1] = details: temperature: 30 C
Experimental: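 MPS profiling in S. cerevisiae of the yeast C-terminome library: the last 12 aa of each annotated ORF are fused to the C-terminus of a sfGFP-mCherry timer, after a GGGS linker. Cells are FACS-sorted into 8 mCherry/sfGFP bins and deep-sequenced. PSI runs from 0 (unstable) to 1 (stable); wild type and das1Δ backgrounds, two technical replicates each.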

Saccharomyces cerevisiae [2] = details: genetic background: wild type; temperature: 30 C
Saccharomyces cerevisiae [3] = tested on: Saccharomyces cerevisiae
Experimental: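 MPS profiling in S. cerevisiae of the tFT-X12 degron library: putative degron peptides plus stable controls, 12 aa, fused to the C-terminus of a sfGFP-mCherry timer. Cells are FACS-sorted into 8 mCherry/sfGFP bins and deep-sequenced. PSI runs from 0 (unstable) to 1 (stable). Backgrounds are wild type, das1Δ and doa10Δ at 30 °C, and wild type, das1Δ, cdc34-1 and cdc53-1 at 37 °C; 2-3 technical replicates each.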

[4] = genetic background: das1 deletion
[5] = genetic background: cdc34-1, temperature: 37 C
[6] = genetic background: cdc53-1, temperature: 37 C
[7] = genetic background: das1 deletion, temperature: 30 C
[8] = genetic background: das1 deletion, temperature: 37 C
[9] = genetic background: doa10 deletion, temperature: 30 C
[10] = genetic background: wild type, temperature: 30 C
[11] = genetic background: wild type, temperature: 37 C

Row | Sequence | protein stability index (Saccharomyces cerevisiae [1]; [4]) | protein stability index (Saccharomyces cerevisiae [1]; genetic background: wild type) | protein stability index (Saccharomyces cerevisiae [2]) | protein stability index (Saccharomyces cerevisiae [3]; [5]) | protein stability index (Saccharomyces cerevisiae [3]; [6]) | protein stability index (Saccharomyces cerevisiae [3]; [7]) | protein stability index (Saccharomyces cerevisiae [3]; [8]) | protein stability index (Saccharomyces cerevisiae [3]; [9]) | protein stability index (Saccharomyces cerevisiae [3]; [10]) | protein stability index (Saccharomyces cerevisiae [3]; [11])
1 | LQAVAVAVSTKK [FAS2 C-terminal 12 aa] | 0.659 ± 0.01 | 0.65 ± 0.033 |  |  |  |  |  |  |  | 
2 | VHTELLIYCHDE [ASR1 C-terminal 12 aa] | 0.7068 ± 0.006 | 0.6802 ± 0.0017 |  |  |  |  |  |  |  | 
3 | AQQNYRLWLSSV [ATG41 C-terminal 12 aa] | 0.682 ± 0.016 | 0.3264 ± 0.0023 |  |  |  |  |  |  |  | 
4 | FVVFYFFLLFGV |  |  | 0.3283 ± 0.00033 | 0.318 ± 0.032 | 0.379 ± 0.0099 | 0.298 ± 0.034 | 0.454 ± 0.023 | 0.289 ± 0.006 | 0.264 ± 0.025 | 0.4219 ± 0.0009
5 | VVIYWFLPIIFA |  |  | 0.23 ± 0.029 | 0.09487 ± 0.00071 | 0.0751 ± 0.015 | 0.163 ± 0.032 | 0.253 ± 0.018 | 0.266 ± 0.006 | 0.155 ± 0.021 | 0.224 ± 0.013
6 | LSFFFWFIFSLC |  |  | 0.376 ± 0.019 | 0.475 ± 0.013 | 0.492 ± 0.053 | 0.429 ± 0.028 | 0.5328 ± 0.0043 | 0.344 ± 0.035 | 0.325 ± 0.0039 | 0.443 ± 0.027
7 | VCLFSVCLWFVS |  |  | 0.21 ± 0.044 | 0.0838 ± 0.025 | 0.219 ± 0.062 | 0.16 ± 0.026 | 0.313 ± 0.011 | 0.124 ± 0.0088 | 0.141 ± 0.015 | 0.227 ± 0.013
8 | GKHILLISLNIT |  |  | 0.351 ± 0.0065 | 0.281 ± 0.024 | 0.395 ± 0.067 | 0.252 ± 0.045 | 0.5 ± 0.013 | 0.246 ± 0.022 | 0.251 ± 0.046 | 0.455 ± 0.02
9 | LPNLPPTSPERH |  |  | 0.663 ± 0.33 | 0.638 ± 0.0034 | 0.734 ± 0.015 | 0.652 ± 0.021 | 0.7046 ± 0.0062 | 0.6558 ± 0.0059 | 0.659 ± 0.015 | 0.703 ± 0.0097
10 | GLCFRVCIWVFV |  |  | 0.195 ± 0.041 | 0.176 ± 0.0029 | 0.284 ± 0.024 | 0.206 ± 0.025 | 0.364 ± 0.0058 | 0.103 ± 0.016 | 0.125 ± 0.025 | 0.218 ± 0.0086
11 | GGRFVWIVRAVG |  |  | 0.471 ± 0.014 | 0.6323 ± 0.0024 | 0.727 ± 0.017 | 0.611 ± 0.021 | 0.73 ± 0.022 | 0.233 ± 0.004 | 0.272 ± 0.037 | 0.568 ± 0.057
12 | SSLLLLCCLLVG |  |  | 0.332 ± 0.01 | 0.365 ± 0.029 | 0.427 ± 0.015 | 0.277 ± 0.032 | 0.437 ± 0.01 | 0.248 ± 0.013 | 0.263 ± 0.03 | 0.403 ± 0.014
13 | VCLVFLFQFVLI |  |  | 0.481 ± 0.011 | 0.482 ± 0.094 | 0.507 ± 0.029 | 0.406 ± 0.023 | 0.517 ± 0.0061 | 0.442 ± 0.028 | 0.41 ± 0.0094 | 0.491 ± 0.01
14 | VYLVVLYLRYFA |  |  | 0.227 ± 0.037 | 0.205 ± 0.031 | 0.22 ± 0.011 | 0.192 ± 0.038 | 0.359 ± 0.023 | 0.173 ± 0.0089 | 0.174 ± 0.016 | 0.306 ± 0.023
15 | SPTRTCTAIRTP |  |  | 0.712 ± 0.034 | 0.689 ± 0.068 | 0.7392 ± 0.0058 | 0.666 ± 0.022 | 0.708 ± 0.0022 | 0.683 ± 0.057 | 0.676 ± 0.027 | 0.671 ± 0.0068
16 | GCLVVVGFFSVF |  |  | 0.326 ± 0.033 | 0.214 ± 0.049 | 0.416 ± 0.041 | 0.255 ± 0.028 | 0.458 ± 0.028 | 0.2 ± 0.011 | 0.241 ± 0.0093 | 0.409 ± 0.018
17 | RCIRRWPYILKL |  |  | 0.273 ± 0.019 | 0.576 ± 0.017 | 0.667 ± 0.0087 | 0.615 ± 0.038 | 0.758 ± 0.059 | 0.214 ± 0.0092 | 0.206 ± 0.042 | 0.285 ± 0.031
18 | GSLGHCWFLFGV |  |  | 0.463 ± 0.016 | 0.59 ± 0.038 | 0.538 ± 0.011 | 0.539 ± 0.022 | 0.461 ± 0.0075 | 0.556 ± 0.064 | 0.538 ± 0.0098 | 0.475 ± 0.021
19 | FCVCLAVTCCGG |  |  | 0.354 ± 0.01 | 0.279 ± 0.023 | 0.42 ± 0.013 | 0.277 ± 0.023 | 0.477 ± 0.0066 | 0.215 ± 0.0029 | 0.26 ± 0.024 | 0.42 ± 0.011
20 | TVILVLFPSPFL |  |  | 0.51 ± 0.021 | 0.589 ± 0.036 | 0.679 ± 0.012 | 0.472 ± 0.037 | 0.671 ± 0.023 | 0.448 ± 0.014 | 0.484 ± 0.01 | 0.597 ± 0.017
21 | RKKKRNKKKMIM |  |  | 0.522 ± 0.044 | 0.716 ± 0.058 | 0.734 ± 0.019 | 0.629 ± 0.019 | 0.706 ± 0.022 | 0.362 ± 0.024 | 0.342 ± 0.09 | 0.621 ± 0.0081
